Measured values taken from paper PMC8101287, “Molecular characterization of HLA class II binding to the LAG‐3 T cell co‐inhibitory receptor” (European Journal of Immunology, 2020).

Target: HLA‐DR1 (HLA‐DRA1*01:01/HLA‐DRB*01:01) complexed with the HA_(306‐318) peptide, refolded from E. coli (human | )
Test: SPR
Conditions: both partners purified

B1: LAG‐3:Fc fusion protein (four extracellular domains of LAG‐3 and the Fc domain of IgG) (Fc fusion)
chain: LQPGAEVPVVWAQEGAPAQLPCSPTIPLQDLSLLRRAGVTWQHQPDSGPPAAAPGHPLAPGPHPAAPSSWGPRPRRYTVLSVGPGGLRSGRLPLQPRVQLDERGRQRGDFSLWLRPARRADAGEYRAAVHLRDRALSCRLRLRLGQASMTASPPGSLRASDWVILNCSFSRPDRPASVHWFRNRGQGRVPVRESPHHHLAESFLFLPQVSPMDSGPWGCILTYRDGFNVSIMYNLTVLGLEPPTPLTVYAGAGSRVGLPCRLPAGVGTRSFLTAKWTPPGGGPDLLVTGDNGDFTLRLEDVSQAQAGTYTCHIHLQEQQLNATVTLAIITVTPKSFGSPGSLGKLLCEVTPVSGQERFVWSSLDTPSQRSFSGPWLEAQEAQLLSQPWQCQLYQGERLLGAAVYFTELSSPGAQRSGRAPGALPAGHL
Which Kd does the source give for B1 here?
Its Kd is 13.1 µM.
